Measured values as given in the DeepSol protein solubility set.

assay: soluble on expression in E. coli; label from the status in PepcDB or PDB records

Sequence	soluble on expression in E. coli
MSDLQKLIQGKIKTIAFAHDSTRVIQCFIQYGNEEQRKQAFQELQGDLVELSKAKYSRNIVKKFLMYGSKPQAAEIIRSFKGHVRKMLRHSEASAIVEYAYNDKAILEQRNMLTEELYGNTFQLYKSADHPTLDKVLELQPAKLELIMDEMKQVLTPMAQKEAVIKHSLVHKVFLDFFTYAPPKPRSELIEAIREAVVYLAHTHDGARVAMHCLWHGTPKDRKVIVKTMKTYVERVANVSAARARFLKSD	not soluble
MSDLSSSLCQLNWLIAKGGLNTVQEIEVPENPNIVGSPVAPAHEGKRRRIFDGADKPPYSYSQLIRLAIEDTPDKKCTLAEIYSFIAHNFQFYRENRNSSWKNSIRHNLSLNKQFSRIEKTDGDRRGWWVCVDPPAKKPRILKGSPVRVNPIYEHLYHNKQDMPNFTPPPEDPFLSEINGNVHELTEHEIRDLNLFESYDLNSSFRDVYNQIFEKSTSPNGKKQAAQIDWLKISLEAAGLDYHDEQELQEVDTDKLKDYVYNGFPAECDSDVSTPRTDSGRHSSSDSVLSATLQPVNNDSDDEYDWDKLL	not soluble
MSDNYKFFRHDNCEYFPCHKVKDKETFNCLFCYCPLYFLENCGGNKSDFNGVKDCSNCLIPHSKNGYDYIINKIREVNKEKRAKNNLTLEHHHHHH	soluble
MSDRGRTLMVQGTTSDAGKSTLVTALCRWLARRGVAVVPFKPQNMALNSAVTADGGEIGRAQAVQAQACRLAPHTDMNPVLLKPNTDIGAQVIIHGRAVTSMDAAAYHDYKRVAMEAVLASHGRLAAAYRVVMVEGAGSPAEINLRANDIANMGFAEAVDCPVILVADIDRGGVFAHLVGTLELLSDSERERVKGFVINRFRGDIALLQPGLDWLEARTGKPVLGVLPYVSDLHLEAEDAIDTRQAAKVGPRLKVVVPVLPRISNHTDFDPLRLHPQVELSFVGPGQALPSADLIVLPGSKSVRADLAALRERGWDEAILRHLRYGGRLLGICGGLQMLGERLHDPLGLEGAAGSSAGLGLLALETTLEADKQLRNVQGRLSLEDAPLSGYEIHAGVTRGEALARPAVVLDDGRADGARSVDGNVMGTYLHGLFESTAACSALLRWAGLREVQAVDYQALRERDIERLADLVERHLDTGRLLALCGEPH	not soluble
MSDVENASLPPAIFIMGPTASGKTALAMTLREYLPVELISVDSALIYKDMDIGTAKPSADELARAPHRLIDILDPTESYSAADFRRDALREMADITAAGRIPLLVGGTMLYFKALLEGLSPLPPADAAVRQRIEEQAKEIGWEAMHRQLSEIDPTAAIRIHPNDPQRLSRALEVFFISGNTLTELTKTSGDALPYQVHQFAIAPAMRELLHQRIEQRFHQMLAAGFETEARALFARHDLHTDMPSIRCVGYRQMWSYLSGEIDYDEMVYRGVCATRQLAKRQMTWLRGWDDVCWLDSENPTEALDKVIQVVSALEHHHHHH	soluble
MSDWNPSLYLHFAAERSRPAVELLARVPLENVDYVADLGCGPGNSTALLHQRWPAARITGIDSSPAMIAEARSALPDCQFVEADIRNWQPEQALDLIFANASLQWLPDHYELFPHLVSLLNPQGVLAVQMPDNWLEPTHVLMREVAWEQNYPDRGRESLAGVHAYYDILSEAGCEVDIWRTTYYHQMPSHQAIIDWVTATGLRPWLQDLTESEQQLFLTRYHQMLKEQYPLQENGQILLAFPRLFIVARRTE	soluble
MSEAEARPTNFIRQIIDEDLASGKHTTVHTRFPPEPNGYLHIGHAKSICLNFGIAQDYKGQCNLRFDDTNPVKEDIEYVESIKNDVEWLGFHWSGNVRYSSDYFDQLHAYAIELINKGLAYVDELTPEQIREYRGTLTQPGKNSPYRDRSVEENLALFEKMRAGGFEEGKACLRAKIDMASPFIVMRDPVLYRIKFAEHHQTGNKWCIYPMYDFTHCISDALEGITHSLRTLEFQDNRRLYDWVLDNITIPVHPRQYEFSRLNLEYTVMSKRKLNLLVTDKHVEGWDDPRMPTISGLRRRGYTAASIREFCKRIGVTKQDNTIEMASLESCIREDLNENAPRAMAVIDPVKLVIENYQGEGEMVTMPNHPNKPEMGSRQVPFSGEIWIDRADFREEANKQYKRLVLGKEVRLRNAYVIKAERVEKDAEGNITTIFCTYDADTLSKDPADGRKVKGVIHWVSAAHALPVEIRLYDRLFSVPNPGAADDFLSVINPESLVIKQGFAEPSLKDAVAGKAFQFEREGYFCLDSRHSTAEKPVFNRTVGLRDTLEHHHHHH	soluble
MSEANSNSEFQTFIEQENQKAAIQAAISKLTETCWDKCVGKPGSKLDRAESECIANCAERFLDSSSFIMQRLMKKQ	soluble
MSECLMFGMDCEARCMTSMTADEENICFLVGTNNIKNDKNQVNKLFMDPEASRLMSKTFRHPAGEVRAIAAHPTKSTILATCTADFSSLGGTHSITIWNIEEDKRTLETVSRLPTEQVMSCLEWEPNSMKCAAMTPFRPEIQLLNMENGPEIVQNLKIPLENEEDEMFSATWSPHHDGNMLGVTGGRTAWCIDCRTDNEYLKIRDAHIHRTISMDFNPNLQHVIATCGDDGYVRIWDTRSTSSALTSLHPHAHWVWSVRFHPVHDQLLLTGGSDASVVLSCAQSVSSEQQIEFRDDEEEEEDDDLVEKLQDGQLERIDEHEDSVYACAWSSADPWTFASLSYDGRMIVSNVSRKHKYALMQL	not soluble
MSEDGGVTTDERACAAPLQLSNTFPRVSRHAVQTGLSPHPRVRNVIAVGSGKGGVGKSTIAVNLAVALQRTGVRVGLLDADIYGPSVPAMLGLSGRPESPDNKLIEPLRAFGIEAMSIGLLIDVDTPMIWRGPMATSALTQLFNDTLWGDLDYLLIDLPPGTGDIQLTLSQKIPVAGAVIVTTPQDIATLDARKALKMFEKVNVPVLGIVENMAMHCCRQCGHVEHLFGEGGAQRMAEHYHVPLLGSLPLDIVIREHGDLGQPITVAAPKGSVGQAYAAVAACLAAELAKRPRAAIPMTTTLGLEHHHHHH	not soluble
MSEEHIAVTRFREYLRVNTEQPNPDYVACRDFLFKYADEVGIERKAVETAPGVYFVIMTIPGSQPELPSIMLYSHTDVVPTFREHWTHDPYSAFKDEDGNIFARGAQDTKCLGVQHVEAFRNLFAKGAKQWKRTIHVVWGPDEETGHINGMKGFVETNEFKKLNIGFSLDEGHASENGVYLTFYAERVTWWLKVTAPGNPGHGSQFMENTAMEKIERFLASARAFRNEQKELLEKNPTWALGDVTTLNVNILKGGVQFNVIPEKFEAYVDIRLTPNQDFGEIRAKLDQWVKDAGEGVTYEFSQHSDYKPVSPHTRDDPFWAAFEDSLKQENCEFTTEVCVGSTDSRFVRKAGVPAINFSPMINTPVRAHAHNEFLNEKVFLRGVEIFETLINNLGNV	not soluble
MSEEIKQEVKEEAPETTTEAKTEEAAPVAEVVAEVVTNGDKPAENGKTEEPSKYAETENYKKLIGLKMKPALADVVCEIYESGLLGPEDLDDRAVDIINSVNLDQAKFIFTEIKNSELFGVATKSLYVTSLIRSFKDRCRQQGAAAVTSGKLINGPELAALKNLLETTGYTIEVTIGQRKFGGPPPDWEGPATGPAGQGHEIYVGHIPTDVFEDTLVPLFEKSGKIWDLRLMMDPMSGASRGYAFVTYCNKEDAAAAAKTYDGHEISTGKPLKVNVSIANTRLFIGNIPKTKSKDEILEELKTHAEGVVDVIVYSVPDNEKIKNRGFCFVDFIDHKTASDIKRKIAQHKIRPFNADVYVDWAEHQEEPDEDTMSKVKVLYIRNIKEAVTEEKLNELFKEYASLDRVKKVKDYAFIHFNERDDCLKAMEEWNGKELEGTVVEASLAKPPQEKKKKPVMRGRGFGGAGGGAGNHGQRGGQRGGGQWGGNAGPGGYYPNHFNNGYDMPMPWGGGYGGDMGYGAYGGGYGGGYGGPGAYGDFGAYGGGGFRGGMRGSPRGGMGGGGGFRGGPPGRGGMANRRGRGKRPGDGRGGPASKRDNGKPDFSADVNMSTF	not soluble
MSEENITNVQENASDYNEDQIQVLEGLEAVRKRPGMYIGSTSQRGLHHLVWEIVDNAIDEALAGFCTEIEITIEADNSITVRDNGRGIPTGINEKIGRPTVEVIFTVLHAGGKFGGGGYKVSGGLHGVGASVVNALSTSLEVYVHREGQKYYQRFERGDVVMDMEEQGETDYRGTIVHFTPDPQIFTETTEFDFDTLRTRTRELAFLNRGLTISIEDKREEHKVRKDFHYEGGIRSYVEHLNKAKDVIHEPPIYLEGERDDIMVEISMQYNTGFSSNIISFANNIHTYEGGTHESGFKTALTRVINDYARRNKLFKDSDDNLSGEDVREGLTAIISIKHPDPQFEGQTKTKLGNSEARSITDKLFSEALNKFMMENPDVAKKIVEKGVVASRARLAAKRAREVARKSSGLEISSLPGKLADCSSRNPEISELYIVEGDSAGGSAKQGRDRLFQAILPIRGKILNVEKARLDRILANEEIRTIFTAMGTGFGGDFDVSKSRYHKLIIMTDADVDGAHIRTLLLTLFYRYMRPLLDAGYIYIAQPPLYQIKHGKQIEYVYSDGQLEDYLASLDGDTKYSIQRYKGLGEMNPEQLWDTTMNPEHRTLLQVNIKDAIDADETFEMLMGDRVEPRRKFIEDNAQYVKNLDV	not soluble
MSEGSGDQSQQRPWASPRQQPIKGIVQPRVLPPFGKPTRHTNKLDYIMTTVLKEAGKHKHVWPFQKPVDAVALCIPLYHERVARPMDLKTIENRLKSTYYTCAQECIDDIETVFQNCYTFNGKEDDVTIMAQNVHEVIKKSLEQAPREEHDMDVYWGKNKKKPAKSDGGSKSSSSKKNDARGPSEAPSEAGSEVSSVTTASAAAPTVSESASVAAKPERKVAGKKTGKRKAESEDDEKPEPLRAKREVAVVKKEVHQPLLPSMKPCLKLLNDFSTKKYQEFAWPFNEPVDAEQLGLHDYHKIIKEPMDLKSMKAKMESGAYKEPSDFEHDVRLMLRNCFLYNPVGDPVHSFGLRFQEVFDRRWAELGDSSSRASSVAPQSAPIAPTPKVAKSSAPKEPKESRKEHKKETTFEASGAKSEDLMQINNALSMIREREEKLKAELAAAQAIKDKLTSVKNRREDNPNEPFPEKLINETRALCTTQVGQNASSSSASSAALRNGRSKKAASARLYGYEFDSDDEDNKMALTYEEKRNLSNLINNLPNNQLNTIISIIQRRERSALMQQQLDDSEVELDFESLGDMCLREMGAFIKTIPTLNGNGDDEKPKTSSNPTSSGATGSKGSSSLESKNGKKKKNFNMSESSDDETSNSRKRRKRESSESQSSSSSDDDSDDEDRPSIPRKSGQPPSTSREWNQSSAPPPRMGGMGGQPPMSRVPASSSTSVSAIGKNNAAASSNSYRYRCFFVRKLNLKISNKKKWKSKKNSTNLVFRSSKTCTSTSTNIIKTSGSTETTVKTKENGRNQQRRLRLDHQRKANPGMVKTSRPGFRGCGWRQSEPAKKKTKAVSRCQTKWK	not soluble
MSEKQINNFSLISRLFGNLFYRFPTDKVLADAFVWLQQEGLSQVWALDTDKESELALNSLQVKIDLNLLNEEYQKLFATNGKVMTAISAYGIDVEEFVNFRLVRNMPEVESADHFALLLLTASWLEDNSDSLVAQQEFFETFLLPCAAKFLTQVENQATLPFYRALALLTREILATMADELEEE	soluble
MSELDFVRRGQDLKAYRALNWEGSFADYLRLLKEDPRPLRTSFQRVHDMILAHGVEEYTRFKEKLLHYRFFDDPFEGGKDAVFGLDKPLMRLVATLKAAAHRLGPERRILLLHGPVGSAKSTIARLLKKGLEAYSRTEEGKLFTFYWKTEEGPLPCPMHEEPLHLLPQDLREAFLEELRALHPDYPYPLEVEGDLCPVCRFQMREGLRKYEGDLAALLEHEVVVKRLVLSEKDRVGIGTFQPKDEKNQDSTELTGDINYRKVALYGSDSDPRAFNFDGELNIANRGIVEFIEILKLDVAFLYDLLTASQEHKIKSKKFAQTDIDEIVLGHTNEPEYRKLQANEYMEALRDRTIKIDVPYILRVSDEVRIYQRDFAKVRGKHIAPHTLEMAATWAVLTRLEPPKRAGLTLMQKLKLYDGKLLPGWTEEAVRELMGEAKREGLEGISPRYIQDKISNVLVTSEEPCINPFMVMNELEEGLKHHSLISDERTRERYRALLQEVKAEYAEIVKNEVQRAIAADEEALNRLFHNYIDHVKAYVLGEKVKNPYTGAPEPPNERLMRSIEERIDIPESRKDDFRREIMNYIGALALEGKPFTYKDNDRLRRALELKLFDDQKDTIRLSALVSGVVDPETQAKIDVVKARLIRDYGYCEHCASGVLEFAASLFARS	soluble
